Patent US9932382B2, “Kv2.1 channel-derived peptides and methods of use” (University of Pittsburgh—Of the Commonwealth System of …, priority 2014, dated 2018)

Tests used:
neurons = test: Current clamp / dynamic clamp electrical properties of neurons; type: cell-based
Procedure: (§1) For electrophysiological experiments, mixed cortical neuronal/glial cultures were prepared from embryonic day 16 (E16) Sprague-Dawley rats (Charles River Laboratories, Wilmington, Mass., USA). Donor rats were euthanized by gradual CO2 exposure. Cortices were dissociated with trypsin, and the resultant cell suspension, adjusted to 670,000 cells per well, was plated on glass coverslips in 6-well plates as described previously (Hartnett et al., J Neurochem 68, 1836-1845, 1997). Non-neuronal cell proliferation was inhibited after two weeks in culture with 1-2 μM cytosine arabinoside, and cultures utilized at three to four weeks in vitro. For neuronal transfection, cells were treated for five hours in serum-free medium with 2 μL LIPOFECTAMINE™ 2000 (Invitrogen, Carlsbad, Calif.), 50 μL Optimem (GIBCO, Grand Island, N.Y.), and 1.5 μg DNA per well. For CHO cell transfections, cells were plated on coverslips in 24-well plates at a density of 5.6×10^4 cells per well for electrophysiological measurements or in 100 mm dishes at a density of 1.7×10^6 cells per dish for biochemical studies. Cells were treated for 3-4 hours in serum-free medium with a total of 1.2 μL LIPOFECTAMINE™ and 0.28 μg DNA per well for electrophysiology, or 55.1 μL LIPOFECTAMINE™ and 7.33 μg DNA per dish for biochemistry. Following transfection, cells were maintained in F12 medium containing fetal bovine serum at 37° C., 5% CO2 for 24 hours prior to experimentation.
Current recordings were performed on eGFP-positive co-transfected neurons or CHO cells using the whole-cell patch clamp configuration technique as described previously (McLaughlin et al., J Neurosci 21, 3303-3311, 2001). The intracellular (electrode) solution contained (in mM): 100 K-gluconate, 11 EGTA, 10 KCl, 1 MgCl2, 1 CaCl2×2H2O, 10 HEPES; pH adjusted to 7.2 with concentrated KOH; 2.2 ATP and 0.33 GTP were added and the osmolarity was adjusted to 280 mOsm with sucrose. The extracellular solution contained (in mM): 115 NaCl, 2.5 KCl, 2.0 MgCl2, 10 HEPES, 10 D-glucose; 0.25 μM tetrodotoxin; pH adjusted to 7.2. Measurements were obtained under whole-cell voltage clamp with an Axopatch-1D amplifier and pClamp software (Molecular Devices, Sunnyvale, Calif.), using 2-3 MΩ recording electrodes. Electrodes were pulled from 1.5 mm borosilicate glass (Warner Instruments, Hamden, Conn.) with a model P-97 mechanical pipette puller (Sutter Instruments, Novato, Calif.). Series resistance was partially compensated (80%) in all cases. Currents were filtered at 2 kHz and digitized at 10 kHz with a Digidata 1440A Digitizer (Molecular Devices). K^+ currents were evoked with incremental 10 mV voltage steps to +80 mV from a holding potential of −80 mV. To determine current density values, steady-state current amplitudes were measured 180 msec after the initiation of the +10 mV step and normalized to cell capacitance. For current clamp experiments, the intracellular (electrode) solution contained (in mM): 94 K-gluconate, 30 KCl, 10 phosphocreatine di-tris salt, 10 HEPES, 0.2 EGTA, 4 ATP, 0.3 GTP; pH adjusted to 7.3 with concentrated KOH. […] By repeatedly adjusting the scaling factor k, an automated binary search algorithm determined threshold synaptic conductance (thresh-gsyn), the conductance required to reach firing threshold (Kullmann et al., J Neurophysiol 91, 542-54, 2004).
(§2) It was next evaluated whether C1a441-522 was sufficient to protect neurons against oxidative injury. […]

cortical neurons = test: Viability of transfected neurons exposed to activated microglia (GFP+ cell counts); type: cell-based, rat; conditions: overnight exposure to activated microglia; vector-expressing cells reduced by nearly 40%
Procedure: as §1, with “Cells were treated for 3-4 hours in serum-free medium with a total of 1.2 μL LIPOFECTAMINE™ and 0.28 μg DNA per well for electrophysiology, or 55.1 μL LIPOFECTAMINE™ and 7.33 μg DNA per dish for biochemistry. Following transfection, cells were maintained in F12 medium containing fetal bovine serum at 37° C., 5% CO2 for 24 hours prior to experimentation.” left out
Viability of transfected neurons was assessed by cell counts of GFP+ cells. […] GFP+ cells were counted in 20 random areas per coverslip using a 20× objective. […]
as §2

B1: C1a441-522: distal segment of C1a, residues 441-522 of rat Kv2.1 (protein, UniProt P15387 441-522, looked up, fragment)
chain: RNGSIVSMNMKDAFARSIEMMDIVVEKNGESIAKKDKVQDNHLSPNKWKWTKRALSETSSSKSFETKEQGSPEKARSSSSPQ
With B1 the “overall effect of expression on neurons” value (neurons) was “relatively innocuous to neurons”, the “firing frequency as a function of depolarizing current versus vector-expressing neurons” value (neurons; 1 sec depolarizing current steps, 15-120 pA) was “small but significant increase” and the “input resistance versus vector-expressing neurons” value (neurons; current clamp) was “no differences”. For the same molecule, the “resting membrane potential versus vector-expressing neurons” value (neurons; current clamp) was “no differences”, the “threshold synaptic conductance versus vector-expressing neurons” value (neurons; dynamic clamp) was “no differences” and the “effect of activated microglia on viability of peptide-expressing neurons” value (cortical neurons) was “no detrimental effect”.
